Measured values published in the DeepSol protein solubility set.

test: soluble on expression in E. coli; label from the status in PepcDB or PDB records

| Sequence | soluble on expression in E. coli |
| --- | --- |
| MGSDKIHHHHHHMELNLQTAELALREASESNPGAWADHSRFVAEACKNIASHCKDLSSEQAYIFGLLHDIGRYAGVSSERHLIDGYRYCMERGWEKAAQICISHAFMIQDIATSIGVFDVSDEDYLFMKEFVANAVYDDYDRLVQLCDALAMPSGFCLLEKRFVDVTMRYGVHPATIDRWKKILEIKEQFENQIGCSIYSLLPGIVENSFR | not soluble |
| AAPDEITTAWPVNVGPLNPHLYTPNQMFAQSMVYEPLVKYQADGSVIPWLAKSWTHSEDGKTWTFTLRDDVKFSNGEPFDAEAAAENFRAVLDNRQRHAWLELANQIVDVKALSKTELQITLKSAYYPFLQELALPRPFRFIAPSQFKNHETMNGIKAPIGTGPWILQESKLNQYDVFVRNENYWGEKPAIKKITFNVIPDPTTRAVAFETGDIDLLYGNEGLLPLDTFARFSQNPAYHTQLSQPIETVMLALNTAKAPTNELAVREALNYAVNKKSLIDNALYGTQQVADTLFAPSVPYANLGLKPSQYDPQKAKALLEKAGWTLPAGKDIREKNGQPLRIELSFIGTDALSKSMAEIIRADMRQIGADVSLIGEEESSIYARQRDGRFGMIFHRTWGAPYDPHAFLSSMRVPSHADFQAQQGLADKPLIDKEIGEVLATHDETQRQALYRDILTRLHDEAVYLPISYISMMVVSKPELGNIPYAPIATEIPFEQIKPVKP | soluble |
| SPKRETKKIKPSQEVIKEGPFLVAIHLKGIYMSNYTNSPCAACKFLRRKCTSDCVFAPYFPPEEPTKFANVHRIFGASNVSKILHEVAPHQREDAVNSLAYEAEARLKDPVYGCVGAISVLQRQVLRLQRELEETNADLMRYAGCLGGETTSAYGGRRG | soluble |
| MGIDVVMTNRRGEPPPELSTLPCFPFKWEQQGEQLPLAPAALEGVTHVLNGIPPDRQGEDAVALALLPQLEKLNLHWFGYLSTTGVYGDRQGGWVDETTPVNPQNLRSQHRVRIEQVFLNANLPTHIFRLPGIYGPGEGRNPIARILKGDVQLIDKPGHYFCRIHVADIVQTLERSLAQPTPQEIYNLSDDQPSESLPVLLEAYRLLGRPAPPAIPLEAANLSPMAQSFWRESRRVRNDKIKQALGVQLRYPSYREGLRAIARELGLEHHHHHH | not soluble |
| MAFTEHSPLTPHRRDLCSRSIWLARKIRSDLTALTESYVKHQGLNKNINLDSADGMPVASTDQWSELTEAERLQENLQAYRTFHVLLARLLEDQQVHFTPTEGDFHQAIHTLLLQVAAFAYQIEELMILLEYKIPRNEADGMPINVGDGGLFEKKLWGLKVLQELSQWTVRSIHDLRFISSHQTGIP | soluble |
| MSLYKAVFSDFNGTLLTSQHTISPRTVVVIKRLTANGIPFVPISARSPLGILPYWKQLETNNVLVAFSGALILNQNLEPIYSVQIEPKDILEINTVLAEHPLLGVNYYTNNDCHARDVENKWVIYERSVTKIEIHPFDEVATRSPHKIQIIGEAEEIIEIEVLLKEKFPHLSICRSHANFLEVMHKSATKGSAVRFLEDYFGVQTNEVIAFGDNFNDLDMLEHVGLGVAMGNAPNEIKQAANVVTATNNEDGLALILEEKFPEEGHHHHHH | soluble |
| MGSDKIHHHHHHMTSPCPQILWNMTRKCNFSCHYCYFPHDNSPVSDSLPVAALLDFLRSRGGEWLVGLTGGEPFIYPYFVDICSAIAAEHRIGIDTNLSVTPVVKRFARHVPPDRVHDIYAALHIEERERRGAVDAFIRNYHTLAGRGFTVKVNYVVHPSLVQRFAADCEFFGRHGIPLTPRPFKGVYEGRRYPEGYGSTAAAIFTQHPEAGRKTVFNFHGVPCHGGHTFLRMEPDGTVLRCPGDKTVLGNVLSGTVQTESGPTPCRMHRCPCQGVEHILPDAAQQDFIEGVRAYVVGDLPAAQRAFTAAHSRAPAMTQAANNAGVAAFAAGDAQAAACCFARAAADDPVTPLYAANLKLARRAAQPSPPSGTENETPELSLAVNYQRTGN | not soluble |
| QVSLRESGGGLVQPGRSLRLSCTASGFTFRHHGMTWVRQAPGKGLEWVASLSGSGTKTHFADSVKGRFTISRDNSNNTLYLQMDNVRDEDTAIYYCAKAKRVGATGYFDLWGRGTLVTVSSASTKGPSVFPLAPSSKSTSGGTAALGCLVKDYFPEPVTVSWNSGALTSGVHTFPAVLQSSGLYSLSSVVTVPSSSLGTQTYICNVNHKPSNTKVDKKAEP | soluble |
| MMTKTTTVPKNVYELAQERLRIVFNEFDNVYLSFSGGKDSGVLLSLCIDYIRRNNLKIKLGVFHMDYEIQYKMTIDYIARMLEDNKDILEVYRVCVPFRVATCTSMYQSFWRPWEDSKKDLWVRPLPENAMTKEDFPFYNTQMWDYEFQMRFASWLHEKKDAVRTCCLIGIRTQESFNRWRCIYLNRKYQMYHRYRWTSKVGNDIFNAYPIYDWKTTDVWTANGKFKWDYNKLYDYYYW | not soluble |
| MGSDKIHHHHHHSDIATSVTQGGEQRLADGGYFELGASVYGTNQLDIRQTEHESIQPSLLISGMYQYKGLFAEMVHQSQDGINFGINLWSSNNWSLDLLAVNYQGSAGRSENTELSQLDEDGRNAYLMETDSIFIGAGFRVTRYWDDHYVFQYRIVSDYFDDQGISTTARLGKSWQVRNWNFHALASIEYASTKLSRNLFGVESMEATELFPEYRPSSAVTYGMELGVAYPLSEKLVFRTVYRLNVLSKEITASPFNQADYGSFFNASFSYVF | not soluble |
| MSLRVAIEGCTQGHGTLDAIYASVEESCKQRGWDGVDILIIGGDFQSVRNAEDLSIMSCPVKYRHLGDFPKYYSGERKAPYLTIFIAGNHEASSHLWELYYGGWVAPNIYYMGAANILRFGPLRIAGLSGIWKGFDYRKPHHERLPFSGGDVKSWYHVREIDVRKLLQVQTQVDVGLSHDWPRAVELHGDHEWLFRKKPDFRNESRDGTLGSVAAEYVMDRLRPPHWFSAHMHVKFAAIKTYSEAQPEEGHHHHHH | soluble |
| MYLQPKKVRWRKQRRGTLKGKAFRGNKLAFGEYGIQALDRAWITQQQIEAVRVALVRSLKKGAKVWIRIFPDKPYTKKPNEVRMGGGKGDPEGFVAVVKPGRILFEFTGVPEEVAQEAFTIAASKLPIPVRLVKYGEFTFKYLEHHHHHH | not soluble |
| MSDPLLQLISTGLGLWIRSRCDQVGDLDLTLQGSSLGLMRGRLQGAVLSARDVRFEGLPLHHAEISSGPIQLDLTWLRPGRMLALKDPFQVKGTVSMPGQPLGDALLSERWRELGDWIAEQLMGLKPLGQLRIENDELELVASVAAQRDPIRKRFRLRAEAGTVVLSASDSPETRAVLPMDPAITITDATLGAGLLTLQGHAIVTPE | not soluble |
| MGSDKIHHHHHHMGIVGLPNAGKSSFFNFLTDNSVPAESFPFCTIEPNVGILVVPDERIEILAKNEGSKKVVHPFVEVVDIAGLVKGASKGEGLGNQFLDHISKVDVIAHVVRLFEDGRVSHPYQNVDPKRDIEIVETELILKDLETVQKRLEKRMKVARTGDKEAKREVELLQNLREFLSQGKKASKFPRHDRFEEEVIESLFLLTDKPQILVFNVDELDEEKRKLIEEIVKEKDEEYIIINVKLEEELKFLPEEEAEVFRREYNLFGDKRKEFFEKVLKLLNLIRFLTATQNEARSWTIKKGSTAYEAAGLIHSDIQKGFIKVEVIPFERYVEFGSLKKAREAGAVETHGKDYIVREGDVIHFLFRA | not soluble |
| MGHHHHHHSHMYADEVDKDRRTFKKNFSSARGSGIDGKWKRDMFQTANRSPKQNFTTKRRAQTNFVTKAGAAAAGLATRNISTASIRGRTAPAVVREIHTGPSTLIIKNLATTVTQEDLEELFEQYEPELVQLHYGPTGESNGCADLIVPHAQVAIIQKALEGVLLDGEPIEVLEANPPKQVSVFDRIKKVSRGNDFKAKNMRVVVKSKGGFQKRGARGDF | soluble |
| MTESVFAVVVTHRRPDELAKSLDVLTAQTRLPDHLIVVDNDGCGDSPVRELVAGQPIATTYLGSRRNLGGAGGFALGMLHALAQGADWVWLADDDGHAQDARVLATLLACAEKYSLAEVSPMVCNIDDPTRLAFPLRRGLVWRRRASELRTEAGQELLPGIASLFNGALFRASTLAAIGVPDLRLFIRGDEVEMHRRLIRSGLPFGTCLDAAYLHPCGSDEFKPILCGRMHAQYPDDPGKRFFTYRNRGYVLSQPGLRKLLAQEWLRFGWFFLVTRRDPKGLWEWIRLRRLGRREKFGKPGGSA | soluble |
| GSHGLCKNLLQEYAQKMNYAIPLYQCQKVETLGRVTQFTCTVEIGGIKYTGAATRTKKDAEISAGRTALLAIQSDT | soluble |
| HGPEGTVEIETVKLARSVFSKLHEICCSWVKDFPLRRRPQLYYETSIHAIKNMRRKMEDKHVCIPDFNMLFNLEDQEEQAYFAVFDGHGGVDAAIYASIHLHVNLVRQEMFPHDPAEALCRAFRVTDERFVQKAARESLRCGTTGVVTFIRGNMLHVAWVGDSQVMLVRKGQAVELMKPHKPDREDEKQRIEALGGCVVWFGAWRVNGSLSVSRAIGDAEHKPYICGDADSASTVLDGTEDYLILACDGFYDTVNPDEAVKVVSDHLKENNGDSSMVAHKLVASARDAGSSDNITVIVVFLRDMNKVRASSPSPL | soluble |
| GPGSMMIDGAINPREWFNWHPKEYQPWYFDRHKFIYEQGQYAAYNHLLCHQAYLKDIEHLTRYPEPRTFVIDCRMSPAKMHRWVPHSMWLPRDEVEYALQLTNDEFQEMYGFIKPAKDDDVILISHNGLASEQAGWEWRKQYYQHVYNYRGGTNELFGEDYQDFILKDRLDPWKGPYPQKSIFVDKWSKRKVLTRTGPFDRQYEMQDFALPDLELERPRHSEDGPRQNMPYGLQ | not soluble |
| MNTNSYSMAQDNEEITKLEAPSTNKTNTLLSQSHAVVNHGDNGQINGKKTKEIHRVKRASDKKVSSKRVSRTWKIPKYPKKQPKSDQEHPGFNLDYMQPTTHPPHHN | soluble |
| MGVLQATVLWAGPIPRVGNPPNWTSPSSSGLLFFYFFFTSTSDFTMEAPPAPKKARRSEVSRMQDESVLCDDDEEDSPFTLYFVDLPNEPTVKEIRNLEELFKTAKAVGIMPEWIDSDALEDLQKSEDFFVLPCFRGKLFRKLQARKLKVYGPPIVLESIEDGKQLPQWNHPVYSSVFQDVKISFTGLNLTKKQELYEKIGWMCGVVGDALYHETTHLVTEKAEQTEKYKAAVNNSIKLMRIGWIDDLWETSQTTMGRFSALSRDSVNSYALRVFEGLEMAITSIDGADRTNFIQLIEDHGGKVPGTMSKTRFFFSVFHYKICSFLGALLSIQMMLPEKAFYRKYHPKYLTADHIRSSTPKRDANVTESVPDISSIAGHGGRLGTSSFNSSIPQMDQSYQHQSGSSFISFASTSKIPSSTFTNNDSTLGRSGSGVRDGISTPIARVQTTPLIRYPTTQTASVQNIADVISDPIDELRKNIDDGLGDLFENCMFYICGVDESRMEKWRRFLNETGATRVAKFTSATNVVVVSPNQQERITIRKHLHQEDIAIVTVGWVVECVKQRKMISVEGYQWTENTADESQSSQSQLQPVRPQPLPRTSSKSTIPYGKTSGPSSTSTQVGIFSYHTYCVHCSVDQEVSDDLKEKIPLNGGKLMDDPDYAEFVIFGHSGPMHELISFDAVVTDFYIYASIGNNRFLNRSCYPLFVPLPRPPILIFNQRGFQLKCKDPFLRDRVRDIIEDNGGRIVEQLEPKDFIIMIDAEDNPPRYHSRTLDFSWIIASVSRCRLQPIDNFLYKNNTRPLSGFQRDDDLWEKCSREKNNSTQEMEVEVEDRHRVQDLPVETGNGNIGDMTTPYVNPYFPDLRKPYTMNLQLDGVSEYINNMESPARETQETLTTSRVGSILRKAVVNTGRNEDFEDEPSTCHLIRPRVPENRKTVSSTPVLVRDVNRSMRYMPMDESFADQNQEHEDLNRRYAMNPRFLLSVSNMDPQRAADLQETIMKLGGTIEREFNKDVTHLIASNMQRAPKVLCSIAAGKWCLTPDYVTKSAEVGRWLDEKSFEWTREKLLACSKKNESLKERDSRKVSENLAAVCGLWRQRVAEMPVTFSVSMENRQNGAFSDWRCVIHLDDKRAGVFSSILEAGGAIVHSISEYVEVSTLKPNIVLASKEFPWNPQSAVLLKRDNIPIYVFDILYDFLIDRDNLNRTKFWHNVYMKA | not soluble |
